How the values were obtained:
HeLa Kyoto [1] = assay: thermal stability score vs G1/S (z-score of summed log2 fold changes over temperatures); higher = more thermally stable than in G1/S
HeLa Kyoto [2] = assay: solubility change mitosis vs G1/S (difference of NP-40 vs SDS log2 ratios) (log2 ratio difference); higher = more soluble in mitosis
HeLa Kyoto [3] = assay: melting temperature (median over replicates), in situ; higher = more thermally stable
HeLa Kyoto [4] = assay: solubility in G1/S (NP-40 vs SDS abundance) (log2 ratio); higher = more soluble; details: cell cycle stage: G1/S
[5] = cell cycle stage: early G1 (4.5 h after nocodazole release)
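Throughout, for melting temperature (median over replicates), in situ: HeLa Kyoto cells synchronized by double thymidine or nocodazole block, proteins quantified by TMT10plex mass spectrometry, three independent biological replicates.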
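Throughout, for solubility change mitosis vs G1/S (difference of NP-40 vs SDS log2 ratios): synchronized HeLa Kyoto cells (double thymidine block for G1/S, nocodazole release for mitosis), protein amounts in NP-40 versus SDS lysates quantified by mass spectrometry, three biological replicates.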
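Throughout, for solubility in G1/S (NP-40 vs SDS abundance): HeLa Kyoto cells arrested at G1/S by double thymidine block, proteins quantified by TMT10plex mass spectrometry in mild NP-40 versus SDS extracts, three biological replicates.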
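Throughout, for thermal stability score vs G1/S (z-score of summed log2 fold changes over temperatures): synchronized HeLa Kyoto cells, proteins quantified by TMT10plex mass spectrometry, three biological replicates, mitosis taken 0.5 h after nocodazole release, G1/S directly after double thymidine block.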

| Sequence | thermal stability score (HeLa Kyoto [1]; [5]) | thermal stability score (HeLa Kyoto [1]; cell cycle stage: mitosis) | solubility change mitosis (log2) (HeLa Kyoto [2]) | melting temperature (HeLa Kyoto [3]; cell cycle stage: G1/S) [°C] | melting temperature (HeLa Kyoto [3]; cell cycle stage: mitosis) [°C] | solubility in G1/S (log2) (HeLa Kyoto [4]) |
| --- | --- | --- | --- | --- | --- | --- |
| MVDYSVWDHIEVSDDEDETHPNIDTASLFRWRHQARVERMEQFQKEKEELDRGCRECKRKVAECQRKLKELEVAEGGKAELERLQAEAQQLRKEERSWEQKLEEMRKKEKSMPWNVDTLSKDGFSKSMVNTKPEKTEEDSEEVREQKHKTFVEKYEKQIKHFGMLRRWDDSQKYLSDNVHLVCEETANYLVIWCIDLEVEEKCALMEQVAHQTIVMQFILELAKSLKVDPRACFRQFFTKIKTADRQYMEGFNDELEAFKERVRGRAKLRIEKAMKEYEEEERKKRLGPGGLDPVEVYESLPEELQKCFDVKDVQMLQDAISKMDPTDAKYHMQRCIDSGLWVPNSKASEAKEGEEAGPGDPLLEAVPKTGDEKDVSV [CDC37] | 0.438 | -0.732 | 0.0658 | 52.1 | 52.6 | 0.24 |
| MVEADRPGKLFIGGLNTETNEKALEAVFGKYGRIVEVLLMKDRETNKSRGFAFVTFESPADAKDAARDMNGKSLDGKAIKVEQATKPSFESGRRGPPPPPRSRGPPRGLRGGRGGSGGTRGPPSRGGHMDDGGYSMNFNMSSSRGPLPVKRGPPPRSGGPPPKRSAPSGPVRSSSGMGGRAPVSRGRDSYGGPPRREPLPSRRDVYLSPRDDGYSTKDSYSSRDYPSSRDTRDYAPPPRDYTYRDYGHSSSRDDYPSRGYSDRDGYGRDRDYSDHPSGGSYRDSYESYGNSRSAPPTRGPPPSYGGSSRYDDYSSSRDGYGGSRDSYSSSRSDLYSSGRDRVGRQERGLPPSMERGYPPPRDSYSSSSRGAPRGGGRGGSRSDRGGGRSRY [RBMX] | -0.25 | 7.17 | 0.777 | 47.5 | 50.5 | -0.567 |
| MVELMFPLLLLLLPFLLYMAAPQIRKMLSSGVCTSTVQLPGKVVVVTGANTGIGKETAKELAQRGARVYLACRDVEKGELVAKEIQTTTGNQQVLVRKLDLSDTKSIRAFAKGFLAEEKHLHVLINNAGVMMCPYSKTADGFEMHIGVNHLGHFLLTHLLLEKLKESAPSRIVNVSSLAHHLGRIHFHNLQGEKFYNAGLAYCHSKLANILFTQELARRLKGSGVTTYSVHPGTVQSELVRHSSFMRWMWWLFSFFIKTPQQGAQTSLHCALTEGLEILSGNHFSDCHVAWVSAQARNETIARRLWDVSCDLLGLPID [RDH11] | -0.184 | 0.26 | -0.137 | 49.5 | 50.2 | -0.0695 |
| MVFLPLKWSLATMSFLLSSLLALLTVSTPSWCQSTEASPKRSDGTPFPWNKIRLPEYVIPVHYDLLIHANLTTLTFWGTTKVEITASQPTSTIILHSHHLQISRATLRKGAGERLSEEPLQVLEHPRQEQIALLAPEPLLVGLPYTVVIHYAGNLSETFHGFYKSTYRTKEGELRILASTQFEPTAARMAFPCFDEPAFKASFSIKIRREPRHLAISNMPLVKSVTVAEGLIEDHFDVTVKMSTYLVAFIISDFESVSKITKSGVKVSVYAVPDKINQADYALDAAVTLLEFYEDYFSIPYPLPKQDLAAIPDFQSGAMENWGLTTYRESALLFDAEKSSASSKLGITMTVAHELAHQWFGNLVTMEWWNDLWLNEGFAKFMEFVSVSVTHPELKVGDYFFGKCFDAMEVDALNSSHPVSTPVENPAQIREMFDDVSYDKGACILNMLREYLSADAFKSGIVQYLQKHSYKNTKNEDLWDSMASICPTDGVKGMDGFCSRSQHSSSSSHWHQEGVDVKTMMNTWTLQKGFPLITITVRGRNVHMKQEHYMKGSDGAPDTGYLWHVPLTFITSKSDMVHRFLLKTKTDVLILPEEVEWIKFNVGMNGYYIVHYEDDGWDSLTGLLKGTHTAVSSNDRASLINNAFQLVSIGKLSIEKALDLSLYLKHETEIMPVFQGLNELIPMYKLMEKRDMNEVETQFKAFLIRLLRDLIDKQTWTDEGSVSERMLRSQLLLLACVHNYQPCVQRAEGYFRKWKESNGNLSLPVDVTLAVFAVGAQSTEGWDFLYSKYQFSLSSTEKSQIEFALCRTQNKEKLQWLLDESFKGDKIKTQEFPQILTLIGRNPVGYPLAWQFLRKNWNKLVQKFELGSSSIAHMVMGTTNQFSTRTRLEEVKGFFSSLKENGSQLRCVQQTIETIEENIGWMDKNFDKIRVWLQSEKLERM [ERAP1] | 3.59 | 5.54 | -0.172 | 53.9 | 54.4 | 0.0916 |
| MVFPAKRFCLVPSMEGVRWAFSCGTWLPSRAEWLLAVRSIQPEEKERIGQFVFARDAKAAMAGRLMIRKLVAEKLNIPWNHIRLQRTAKGKPVLAKDSSNPYPNFNFNISHQGDYAVLAAEPELQVGIDIMKTSFPGRGSIPEFFHIMKRKFTNKEWETIRSFKDEWTQLDMFYRNWALKESFIKAIGVGLGFELQRLEFDLSPLNLDIGQVYKETRLFLDGEEEKEWAFEESKIDEHHFVAVALRKPDGSRHQDVPSQDDSKPTQRQFTILNFNDLMSSAVPMTPEDPSFWDCFCFTEEIPIRNGTKS [AASDHPPT] | 0.145 | -0.453 | -0.124 | 52.3 | 52.4 | 0.0817 |
| MVFYFTSSSVNSSAYTIYMGKDKYENEDLIKHGWPEDIWFHVDKLSSAHVYLRLHKGENIEDIPKEVLMDCAHLVKANSIQGCKMNNVNVVYTPWSNLKKTADMDVGQIGFHRQKDVKIVTVEKKVNEILNRLEKTKVERFPDLAAEKECRDREERNEKKAQIQEMKKREKEEMKKKREMDELRSYSSLMKVENMSSNQDGNDSDEFM [CCDC25] | -0.0583 | -0.134 | -0.118 | 50.4 | 50.6 | 0.0307 |
| MVGREKELSIHFVPGSCRLVEEEVNIPNRRVLVTGATGLLGRAVHKEFQQNNWHAVGCGFRRARPKFEQVNLLDSNAVHHIIHDFQPHVIVHCAAERRPDVVENQPDAASQLNVDASGNLAKEAAAVGAFLIYISSDYVFDGTNPPYREEDIPAPLNLYGKTKLDGEKAVLENNLGAAVLRIPILYGEVEKLEESAVTVMFDKVQFSNKSANMDHWQQRFPTHVKDVATVCRQLAEKRMLDPSIKGTFHWSGNEQMTKYEMACAIADAFNLPSSHLRPITDSPVLGAQRPRNAQLDCSKLETLGIGQRTPFRIGIKESLWPFLIDKRWRQTVFH [MAT2B] | -0.304 | -1.94 | -0.0436 | 55.5 | 56.3 | 0.344 |
| MVGVKPVGSDPDFQPELSGAGSRLAVVKFTMRGCGPCLRIAPAFSSMSNKYPQAVFLEVDVHQCQGTAATNNISATPTFLFFRNKVRIDQYQGADAVGLEEKIKQHLENDPGSNEDTDIPKGYMDLMPFINKAGCECLNESDEHGFDNCLRKDTTFLESDCDEQLLITVAFNQPVKLYSMKFQGPDNGQGPKYVKIFINLPRSMDFEEAERSEPTQALELTEDDIKEDGIVPLRYVKFQNVNSVTIFVQSNQGEEETTRISYFTFIGTPVQATNMNDFKRVVGKKGESH [TXNL1] | -0.465 | -0.0973 | -0.112 | 50.1 | 50.2 | 0.258 |
| MVGYDPKPDGRNNTKFQVAVAGSVSGLVTRALISPFDVIKIRFQLQHERLSRSDPSAKYHGILQASRQILQEEGPTAFWKGHVPAQILSIGYGAVQFLSFEMLTELVHRGSVYDAREFSVHFVCGGLAACMATLTVHPVDVLRTRFAAQGEPKVYNTLRHAVGTMYRSEGPQVFYKGLAPTLIAIFPYAGLQFSCYSSLKHLYKWAIPAEGKKNENLQNLLCGSGAGVISKTLTYPLDLFKKRLQVGGFEHARAAFGQVRRYKGLMDCAKQVLQKEGALGFFKGLSPSLLKAALSTGFMFFSYEFFCNVFHCMNRTASQR [SLC25A19] | -0.746 | -1.27 | -0.0971 | 56.4 | 55.6 | -0.155 |
| MVHQVLYRALVSTKWLAESIRTGKLGPGLRVLDASWYSPGTREARKEYLERHVPGASFFDIEECRDTASPYEMMLPSEAGFAEYVGRLGISNHTHVVVYDGEHLGSFYAPRVWWMFRVFGHRTVSVLNGGFRNWLKEGHPVTSEPSRPEPAVFKATLDRSLLKTYEQVLENLESKRFQLVDSRSQGRFLGTEPEPDAVGLDSGHIRGAVNMPFMDFLTEDGFEKGPEELRALFQTKKVDLSQPLIATCRKGVTACHVALAAYLCGKPDVAVYDGSWSEWFRRAPPESRVSQGKSEKA [TST] | 5.41 | 3.98 | -0.0824 | 48.3 | 49.3 | 0.187 |
| MVISESMDILFRIRGGLDLAFQLATPNEIFLKKALKHVLSDLSTKLSSNALVFRICHSSVYIWPSSDINTIPGELTDASACKNILRFIQFEPEEDIKRKFMRKKDKKLSDMHQIVNIDLMLEMSTSLAAVTPIIERESGGHHYVNMTLPVDAVISVAPEETWGKVRKLLVDAIHNQLTDMEKCILKYMKGTSIVVPEPLHFLLPGKKNLVTISYPSGIPDGQLQAYRKELHDLFNLPHDRPYFKRSNAYHFPDEPYKDGYIRNPHTYLNPPNMETGMIYVVQGIYGYHHYMQDRIDDNGWGCAYRSLQTICSWFKHQGYTERSIPTHREIQQALVDAGDKPATFVGSRQWIGSIEVQLVLNQLIGITSKILFVSQGSEIASQGRELANHFQSEGTPVMIGGGVLAHTILGVAWNEITGQIKFLILDPHYTGAEDLQVILEKGWCGWKGPDFWNKDAYYNLCLPQRPNMI [UFSP2] | -0.738 | -0.716 | -0.212 | 51.2 | 51 | -0.0543 |
| MVKLTAELIEQAAQYTNAVRDRELDLRGYKIPVIENLGATLDQFDAIDFSDNEIRKLDGFPLLRRLKTLLVNNNRICRIGEGLDQALPCLTELILTNNSLVELGDLDPLASLKSLTYLSILRNPVTNKKHYRLYVIYKVPQVRVLDFQKVKLKERQEAEKMFKGKRGAQLAKDIARRSKTFNPGAGLPTDKKKGGPSPGDVEAIKNAIANASTLAEVERLKGLLQSGQIPGRERRSGPTDDGEEEMEEDTVTNGS [SNRPA1] | 0.145 | -1.77 | 0.21 | 54 | 54.2 | 0.281 |
| MVKQIESKTAFQEALDAAGDKLVVVDFSATWCGPCKMIKPFFHSLSEKYSNVIFLEVDVDDCQDVASECEVKCMPTFQFFKKGQKVGEFSGANKEKLEATINELV [TXN] | -0.802 | -2.72 | -0.04 | 57.3 | 58.1 | 0.255 |
| MVLAELYVSDREGSDATGDGTKEKPFKTGLKALMTVGKEPFPTIYVDSQKENERWNVISKSQLKNIKKMWHREQMKSESREKKEAEDSLRREKNLEEAKKITIKNDPSLPEPKCVKIGALEGYRGQRVKVFGWVHRLRRQGKNLMFLVLRDGTGYLQCVLADELCQCYNGVLLSTESSVAVYGMLNLTPKGKQAPGGHELSCDFWELIGLAPAGGADNLINEESDVDVQLNNRHMMIRGENMSKILKARSMVTRCFRDHFFDRGYYEVTPPTLVQTQVEGGATLFKLDYFGEEAFLTQSSQLYLETCLPALGDVFCIAQSYRAEQSRTRRHLAEYTHVEAECPFLTFDDLLNRLEDLVCDVVDRILKSPAGSIVHELNPNFQPPKRPFKRMNYSDAIVWLKEHDVKKEDGTFYEFGEDIPEAPERLMTDTINEPILLCRFPVEIKSFYMQRCPEDSRLTESVDVLMPNVGEIVGGSMRIFDSEEILAGYKREGIDPTPYYWYTDQRKYGTCPHGGYGLGLERFLTWILNRYHIRDVCLYPRFVQRCTP [NARS] | 3.39 | 4 | -0.124 | 52.6 | 53.1 | -0.0613 |
